Measurements as given in paper PMC8189816, “Molecular Basis for the Interactions of Human Thioredoxins with Their Respective Reductases” (Oxidative Medicine and Cellular Longevity, 2021).

T1: recombinant selenocysteine-containing rat TrxR1 (rat, UniProt O89049 1-499, selenocysteine (selenocysteine-containing; low degree of incorporation presumed by the paper))
T1 construct: rat cytosolic thioredoxin reductase 1, selenocysteine-containing; Used for all enzymatic assays (insulin reduction); also called recombinant selenocysteine-containing TrxR
T1 sequence (looked up): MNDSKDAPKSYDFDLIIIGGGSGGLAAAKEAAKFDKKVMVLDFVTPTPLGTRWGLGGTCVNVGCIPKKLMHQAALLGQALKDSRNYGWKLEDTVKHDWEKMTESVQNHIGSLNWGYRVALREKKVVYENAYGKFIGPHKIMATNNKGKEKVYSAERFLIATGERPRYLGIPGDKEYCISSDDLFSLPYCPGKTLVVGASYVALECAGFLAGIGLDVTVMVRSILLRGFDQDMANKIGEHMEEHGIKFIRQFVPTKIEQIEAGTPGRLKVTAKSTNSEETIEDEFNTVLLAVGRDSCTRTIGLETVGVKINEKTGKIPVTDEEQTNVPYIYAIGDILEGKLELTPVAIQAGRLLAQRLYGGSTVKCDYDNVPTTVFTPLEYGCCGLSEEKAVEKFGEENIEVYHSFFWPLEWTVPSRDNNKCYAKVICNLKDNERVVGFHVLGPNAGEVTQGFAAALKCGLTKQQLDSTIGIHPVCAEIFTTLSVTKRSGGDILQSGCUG


Experiments:
[1] = molecular target: human thioredoxin reductase 1 (TrxR1) U498C mutant (human) (UniProt Q16881); experiment: differential scanning fluorimetry; 10 uM hTrxR (U498C), hTrx1 0 to 100 uM, Sypro Orange 1:500, 50 mM Tris, 1 mM EDTA, pH 7.4; Tm of the first denaturation step of TrxR plotted against log [Trx] (Hill plot), EC50 converted to Kd
[2] = molecular target: recombinant selenocysteine-containing rat TrxR1 (rat) (UniProt O89049)
[3] = molecular target: T1, recombinant selenocysteine-containing …; experiment: enzyme inhibition kinetics (insulin reduction assay, NADPH depletion); 1.25 nM recombinant rat selenocysteine-containing TrxR, 150 uM NADPH, 160 uM insulin, 50 mM Tris-EDTA pH 7.5; Lineweaver-Burk plots, Ki from secondary plot of slopes against the concentration of the redox-inactive mutant; details: both partners purified

| Binder | Kd [1] [µM] | KM of TrxR1 for the Trx1 variant, insulin reduction-coupled assay [2] [µmol/L] | Ki [3] [µM] |
| --- | --- | --- | --- |
| human Trx1 K39E (natural protein) MVKQIESKTAFQEALDAAGDKLVVVDFSATWCGPCKMIEPFFHSLSEKYSNVIFLEVDVDDCQDVASECEVKCMPTFQFFKKGQKVGEFSGANKEKLEATINELV | 9.68 | 1.45 |  |
| human Trx1 K72E (natural protein) MVKQIESKTAFQEALDAAGDKLVVVDFSATWCGPCKMIKPFFHSLSEKYSNVIFLEVDVDDCQDVASECEVECMPTFQFFKKGQKVGEFSGANKEKLEATINELV |  | 2.22 |  |
| human Trx1 K36E (natural protein) MVKQIESKTAFQEALDAAGDKLVVVDFSATWCGPCEMIKPFFHSLSEKYSNVIFLEVDVDDCQDVASECEVKCMPTFQFFKKGQKVGEFSGANKEKLEATINELV | 5.28 | 9.82 |  |
| human Trx1 A17R,I53R (natural protein) MVKQIESKTAFQEALDRAGDKLVVVDFSATWCGPCKMIKPFFHSLSEKYSNVRFLEVDVDDCQDVASECEVKCMPTFQFFKKGQKVGEFSGANKEKLEATINELV |  | 2.73 |  |
| human Trx1 D60N (natural protein) MVKQIESKTAFQEALDAAGDKLVVVDFSATWCGPCKMIKPFFHSLSEKYSNVIFLEVDVNDCQDVASECEVKCMPTFQFFKKGQKVGEFSGANKEKLEATINELV |  | 3.26 |  |
| human Trx1 D58,60,61N (natural protein) MVKQIESKTAFQEALDAAGDKLVVVDFSATWCGPCKMIKPFFHSLSEKYSNVIFLEVNVNNCQDVASECEVKCMPTFQFFKKGQKVGEFSGANKEKLEATINELV |  | 5.83 |  |
| human Trx1 C73H (natural protein) MVKQIESKTAFQEALDAAGDKLVVVDFSATWCGPCKMIKPFFHSLSEKYSNVIFLEVDVDDCQDVASECEVKHMPTFQFFKKGQKVGEFSGANKEKLEATINELV |  | 1.24 |  |
| human Trx1 C32,35S (redox-inactive active site double mutant) (natural protein, UniProt P10599 1-105, looked up, human cytosolic thioredoxin 1, both active site cysteinyl residues exchanged for seryl residues; also called hTrx1C32,35S; double cysteinyl mutant) MVKQIESKTAFQEALDAAGDKLVVVDFSATWSGPSKMIKPFFHSLSEKYSNVIFLEVDVDDCQDVASECEVKCMPTFQFFKKGQKVGEFSGANKEKLEATINELV | 9.8 |  | 5.3 |

The remaining lines, values ahead:

| Kd [1] [µM] | KM of TrxR1 for the Trx1 variant, insulin reduction-coupled assay [2] [µmol/L] | Ki [3] [µM] | Binder |
| --- | --- | --- | --- |
|  | 3.78 |  | human Trx1 K94E (natural protein) MVKQIESKTAFQEALDAAGDKLVVVDFSATWCGPCKMIKPFFHSLSEKYSNVIFLEVDVDDCQDVASECEVKCMPTFQFFKKGQKVGEFSGANEEKLEATINELV |
|  | 6.37 |  | human Trx1 Q63R (natural protein) MVKQIESKTAFQEALDAAGDKLVVVDFSATWCGPCKMIKPFFHSLSEKYSNVIFLEVDVDDCRDVASECEVKCMPTFQFFKKGQKVGEFSGANKEKLEATINELV |
|  | 7.09 |  | human Trx1 Q63R,K94E (natural protein) MVKQIESKTAFQEALDAAGDKLVVVDFSATWCGPCKMIKPFFHSLSEKYSNVIFLEVDVDDCRDVASECEVKCMPTFQFFKKGQKVGEFSGANEEKLEATINELV |
| 13.6 |  |  | human thioredoxin 1 (Trx1), wild-type (natural protein) MVKQIESKTAFQEALDAAGDKLVVVDFSATWCGPCKMIKPFFHSLSEKYSNVIFLEVDVDDCQDVASECEVKCMPTFQFFKKGQKVGEFSGANKEKLEATINELV |
|  | 1.36 |  | human Trx1 S67H (natural protein) MVKQIESKTAFQEALDAAGDKLVVVDFSATWCGPCKMIKPFFHSLSEKYSNVIFLEVDVDDCQDVAHECEVKCMPTFQFFKKGQKVGEFSGANKEKLEATINELV |
